Assay results as given in patent publication US20240025977A1 (UNIVERSITY HEALTH NETWORK, published 2024).

Tests used:
[1] = target: ATTR amyloid in human cardiac tissue (human, UniProt P02766 21-147); assay: immunohistochemistry, ATTR cardiac tissue
[2] = target: T1, misfolded/unfolded AL12 kappa light chain; assay: bio-layer interferometry, Octet fit, table inset
T1 construct: also called misfolded AL12
Method: (§1) FIGS. 13A-13D are bio-layer interferometry sensorgrams of binding interactions between LX-96 and misfolded (FIG. 13A, 13C) or native kappa light chain variants (FIG. 13B, 13D). Binding of LX-96 with its targets at a range of target concentrations was measured by changes in wavelength (nm) over 2000 seconds (300s association, 1700s dissociation). Association and dissociation curves were fit using Octet Systems Software to determine KD, KD Error, X2 and R2 values (table insets; FIGS. 13A-13D).
(§2) We quantified the monovalent binding affinity of LX-96 using bio-layer interferometry (BLI). LX-96 was loaded onto Anti-Mouse IgG Fc Capture (AMC) biosensors and dipped into a solution of varying concentrations of misfolded AL09 (0-200 nM) or native AL09 (0-3000 nM). From the sensorgram, we observed rapid association of misfolded AL09 with LX-96, followed by a slow dissociation step (FIG. 13A). […] This confirms that LX-96 is capable of binding specifically to the misfolded form of different kappa light chain variants at similar, single-digit nanomolar affinities.

[3] = target: T2, misfolded/unfolded AL09 kappa light chain; assay: BLI (Octet), LX-96 on Anti-Mouse IgG Fc Capture biosensors, misfolded AL09 0-200 nM in solution
T2 construct: Same polypeptide as native AL09, in a chemically unfolded, reduced and alkylated state; also called misfolded AL09; mis/unfolded AL09
Method: as §1, §2

[4] = target: T3, IAPP (islet amyloid polypeptide) amyloid in pancreatic tissue (human, UniProt P10997 34-70); assay: immunohistochemistry, pancreatic tissue
T3 construct: Tissue section; also called IAPP pancreatic tissue
T3 chain (looked up): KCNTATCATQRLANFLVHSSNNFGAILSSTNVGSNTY

[5] = target: T1, misfolded/unfolded AL12 kappa light …; assay: BLI (Octet), LX-96 on Anti-Mouse IgG Fc Capture biosensors, misfolded AL12 in solution
Method: as §1, §2

[6] = target: FITC-labeled AL09 under amyloid-forming conditions; assay: cell-based or functional assay

binding result [1]: no binding
Kd [2]: 7.47 nM
Kd [3]: 1.12 nM
binding result [4]: no binding
Kd [5]: 7.5 nM
inhibition of AL09 aggregation (FITC fluorescence of the soluble fraction at endpoint), IC50 [6]: < 1000 nM
B1: LX-96 anti-kappa monoclonal antibody (antibody, V domains shown)
VH: QVQLQQPGAELARPGASVKLSCKASGYTFTSFWIQWIKQRPGQGLEWIGSIYPGDGDTRYIQKFRGKATLTADESSSTAYMQLSSLASEDSAIYYCAIVTTAPDYWGQGTTLTVSS
VL: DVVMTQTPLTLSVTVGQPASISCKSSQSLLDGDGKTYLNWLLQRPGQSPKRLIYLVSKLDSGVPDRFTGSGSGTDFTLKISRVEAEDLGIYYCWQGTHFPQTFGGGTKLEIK
notes: Fluorescently labeled in the in vivo localisation assay; also called anti-κ monoclonal antibody
